Experimental data as given in paper PMC3808164.

Experiments:
Experiment in all cases: co-IP
[1] = molecular target: GFP-tagged VP1/2[change]^S (deletion of region 6^S in the context of full-length VP1/2) (pseudorabies virus (PRV))
[2] = molecular target: GFP-tagged VP1/2 with a single deletion of regions 1–4 (C terminus intact) (pseudorabies virus (PRV))
[3] = molecular target: GFP-tagged VP1/2 regions 6 and 7 (deletion of regions 1–5) (pseudorabies virus (PRV))
[4] = molecular target: GFP-tagged VP1/2 with the region 6^S deletion combined with deletion of regions 1–4 (pseudorabies virus (PRV))
[5] = molecular target: GFP-VP1/2[change] (pseudorabies virus (PRV))

| Substance | fold decrease in binding against full-length VP1/2 [1] [fold] | fold decrease in binding against full-length VP1/2 [2] [fold] | fold decrease in binding against full-length VP1/2 [3] [fold] | fold decrease in binding against full-length VP1/2 [4] [fold] | efficiency of coimmunoprecipitation as percent of full-length GFP-VP1/2 [5] [%] |
| --- | --- | --- | --- | --- | --- |
| p50/dynamitin (from UniProt Q13561 1-401) (natural protein) | 4 | 9 | 11 | 23 | – |
| p150/glued dynactin subunit (from UniProt Q14203 1-1278) (natural protein) | 5 | 5 | – | – | 79 |
